Where a chain is given by its changes, count along the chain named. Names may count otherwise. “And” between values parts separate entries of the source, which are not always exact repeats. Equal values may be shown once.
B1: KB001 parental mouse Fab FASEBA variant VH K64G (Fab, V domains shown)
VH: EVQLKQSGPGLVAPSQSLSITCTVSGFSLSIYSVHWVRQPPGKGLEWLGMIWGGGSSDYNSALGSRLSISKDNSKSQVFLKMNSLQTDDTAMYYCARNGNFYAMDYWGQGTSVTVSS
VL: QIVLTQSPAIMSASLGERVTMTCTASSSVSSSFLHWYQQKPGSSPQLWIYSTSNLASGVPARFSGSGSGTSYSLTISSMEAEDAATYYCHQYHHSPYIYTFGGGTKLEIK
B2: KB001 parental mouse Fab FASEBA variant VH K64E (Fab, V domains shown)
VH: B1 VH with G64E
VL: B1 VL
B3: KB001 parental mouse Fab FASEBA variant VH K64Q (Fab, V domains shown)
VH: B1 VH with G64Q
VL: B1 VL
B4: KB001 parental mouse Fab FASEBA variant VH K64M (Fab, V domains shown)
VH: B1 VH with G64M
VL: B1 VL
B5: KB001 parental mouse Fab FASEBA variant VH K64D (Fab, V domains shown)
VH: B1 VH with G64D
VL: B1 VL
B6: KB001 parental mouse Fab FASEBA variant VH K64H (Fab, V domains shown)
VH: B1 VH with G64H
VL: B1 VL
B7: KB001 parental mouse Fab FASEBA variant VH K64L (Fab, V domains shown)
VH: B1 VH with G64L
VL: B1 VL
B8: KB001 mouse Fab variant VL Y92D (Fab, V domains shown)
VH: B1 VH with G64K
VL: B1 VL with Y92D
B9: KB001 mouse Fab variant VL S95Q (Fab, V domains shown)
VH: B1 VH with G64K
VL: B1 VL with S95Q
B10: KB001 mouse Fab variant VL T100I (Fab, V domains shown)
VH: B1 VH with G64K
VL: B1 VL with T100I
B11: KB001 mouse Fab variant VL I98V (Fab, V domains shown)
VH: B1 VH with G64K
VL: B1 VL with I98V
B12: KB001 mouse Fab variant VL Y97H (Fab, V domains shown)
VH: B1 VH with G64K
VL: B1 VL with Y97H
B13: KB001 mouse Fab variant VL Y97I (Fab, V domains shown)
VH: B1 VH with G64K
VL: B1 VL with Y97I
B14: KB001 mouse Fab variant VL S95I (Fab, V domains shown)
VH: B1 VH with G64K
VL: B1 VL with S95I
B15: KB001 mouse Fab variant VL I98L (Fab, V domains shown)
VH: B1 VH with G64K
VL: B1 VL with I98L
B16: KB001 mouse Fab variant VL S95W (Fab, V domains shown)
VH: B1 VH with G64K
VL: B1 VL with S95W
B17: KB001 mouse Fab variant VL S95H (Fab, V domains shown)
VH: B1 VH with G64K
VL: B1 VL with S95H
B18: KB001 mouse Fab variant VL Y97L (Fab, V domains shown)
VH: B1 VH with G64K
VL: B1 VL with Y97L
B19: KB001 mouse Fab variant VL Y97K (Fab, V domains shown)
VH: B1 VH with G64K
VL: B1 VL with Y97K
B20: KB001 mouse Fab variant VL Y97S (Fab, V domains shown)
VH: B1 VH with G64K
VL: B1 VL with Y97S
B21: KB001 mouse Fab variant VL Y97V (Fab, V domains shown)
VH: B1 VH with G64K
VL: B1 VL with Y97V
B22: KB001 mouse Fab variant VL Y92N (Fab, V domains shown)
VH: B1 VH with G64K
VL: B1 VL with Y92N
B23: KB001 mouse Fab variant VL T100P (Fab, V domains shown)
VH: B1 VH with G64K
VL: B1 VL with T100P
B24: KB001 mouse Fab variant VL I98M (Fab, V domains shown)
VH: B1 VH with G64K
VL: B1 VL with I98M
B25: KB001 mouse Fab variant VL S95C (Fab, V domains shown)
VH: B1 VH with G64K
VL: B1 VL with S95C
B26: KB001 mouse Fab variant VL S95N (Fab, V domains shown)
VH: B1 VH with G64K
VL: B1 VL with S95N
B27: KB001 mouse Fab variant VL Y97R (Fab, V domains shown)
VH: B1 VH with G64K
VL: B1 VL with Y97R
B28: KB001 mouse Fab variant VL S95T (Fab, V domains shown)
VH: B1 VH with G64K
VL: B1 VL with S95T
B29: KB001 mouse Fab variant VL H94Y (Fab, V domains shown)
VH: B1 VH with G64K
VL: B1 VL with H94Y
B30: KB001 mouse Fab variant VL H94F (Fab, V domains shown)
VH: B1 VH with G64K
VL: B1 VL with H94F
B31: KB001 mouse Fab variant VL Y97Q (Fab, V domains shown)
VH: B1 VH with G64K
VL: B1 VL with Y97Q
B32: KB001 mouse Fab variant VL Y97F (Fab, V domains shown)
VH: B1 VH with G64K
VL: B1 VL with Y97F
B33: KB001 mouse Fab variant VL I98R (Fab, V domains shown)
VH: B1 VH with G64K
VL: B1 VL with I98R
B34: KB001 mouse Fab variant VL S95Y (Fab, V domains shown)
VH: B1 VH with G64K
VL: B1 VL with S95Y
B35: KB001 mouse Fab variant VL H93N (Fab, V domains shown)
VH: B1 VH with G64K
VL: B1 VL with H93N
B36: KB001 mouse Fab variant VL S95F (Fab, V domains shown)
VH: B1 VH with G64K
VL: B1 VL with S95F
B37: KB001 parental mouse Fab (FASEBA), WT clone (Fab, V domains shown)
VH: B1 VH with G64K
VL: B1 VL
B38: KB001 mouse Fab variant VL S95A (Fab, V domains shown)
VH: B1 VH with G64K
VL: B1 VL with S95A
B39: KB001 mouse Fab variant VL T100V (Fab, V domains shown)
VH: B1 VH with G64K
VL: B1 VL with T100V
B40: KB001 mouse Fab variant VL S95E (Fab, V domains shown)
VH: B1 VH with G64K
VL: B1 VL with S95E

Molecular target: HRgpA-6H (Porphyromonas gingivalis) (UniProt P28784)
Assay: ELISA, FASEBA screening, coated HRgpA-6H; variant OD over parental WT Fab OD

Binder	Ratio OD(Variant)/OD(WT)
B1	0.981
B2	0.954
B3	0.954
B4	0.948
B5	0.944
B6	0.953 and 0.975 and 0.883
B7	0.803

Molecular target: HRgpA-6H (Porphyromonas gingivalis) (UniProt P28784)
Assay: ELISA, FASEBA Fab supernatant on coated HRgpA-6H

Binder	OD450 nm
B8	0.758
B9	0.893
B10	0.493
B11	0.832 and 0.838 and 0.787
B12	0.775
B13	0.667
B14	0.846 and 0.817 and 0.791
B15	0.836
B16	0.804 and 0.79
B17	0.8
B18	0.739
B19	0.654
B20	0.633
B21	0.662
B22	0.773
B23	0.46
B24	0.729

Binder	OD450 nm
B25	0.849
B26	0.863 and 0.884
B27	0.769
B28	0.871
B29	0.865
B30	0.77
B31	0.687
B32	0.75 and 0.756
B33	0.726 and 0.722
B34	0.827
B35	0.857
B36	0.837
B37	0.9 and 0.889
B38	0.83 and 0.872
B39	0.461 and 0.428
B40	0.855 and 0.82

Molecular target: HRgpA-6H (Porphyromonas gingivalis) (UniProt P28784)
Assay: ELISA, FASEBA screening, coated HRgpA-6H 0.0625 ug/ml

Binder	OD450 nm
B1	0.811
B2	0.789
B3	0.789
B4	0.784
B5	0.781
B6	0.788 and 0.806 and 0.73
B7	0.664

Molecular target: HRgpA-6H (Porphyromonas gingivalis) (UniProt P28784)
Assay: ELISA on coated HRgpA-6H, OD relative to parental Fab

Binder	Ratio OD(Variant)/OD(WT)
B8	0.805 fold
B9	0.972 fold
B10	0.942 fold
B11	0.951 fold and 0.958 fold and 0.899 fold
B12	0.982 fold
B13	0.845 fold
B14	0.921 fold and 0.889 fold and 0.861 fold
B15	0.955 fold
B16	0.875 fold and 0.86 fold
B17	0.871 fold
B18	0.937 fold
B19	0.829 fold
B20	0.802 fold
B21	0.839 fold
B22	0.821 fold
B23	0.879 fold
B24	0.833 fold

Binder	Ratio OD(Variant)/OD(WT)
B25	0.924 fold
B26	0.94 fold and 0.962 fold
B27	0.975 fold
B28	0.948 fold
B29	0.942 fold
B30	0.838 fold
B31	0.871 fold
B32	0.951 fold and 0.958 fold
B33	0.83 fold and 0.825 fold
B34	0.9 fold
B35	0.91 fold
B36	0.911 fold
B37	0.98 fold and 0.968 fold
B38	0.904 fold and 0.949 fold
B39	0.881 fold and 0.818 fold
B40	0.931 fold and 0.893 fold

Reference: patent US20240400654A1
